Residue numbers refer to the chain shown, from its start. In names and notes the source's numbering stands. Values belong to the binder of their own block, whether it stands above or below them.
Columns and labels:
Human MUC16-His = biological target: T1, Human MUC16-His (human); experiment: BLI (ForteBio Octet RED96), antibody on AHC sensor, 50 nM antigen, 1:1 model
T1 construct: The entry includes the C-terminal 6xHis tag; also called membrane-proximal end of the extracellular region of the human MUC16 protein; Human MUC16 protein
T1 chain: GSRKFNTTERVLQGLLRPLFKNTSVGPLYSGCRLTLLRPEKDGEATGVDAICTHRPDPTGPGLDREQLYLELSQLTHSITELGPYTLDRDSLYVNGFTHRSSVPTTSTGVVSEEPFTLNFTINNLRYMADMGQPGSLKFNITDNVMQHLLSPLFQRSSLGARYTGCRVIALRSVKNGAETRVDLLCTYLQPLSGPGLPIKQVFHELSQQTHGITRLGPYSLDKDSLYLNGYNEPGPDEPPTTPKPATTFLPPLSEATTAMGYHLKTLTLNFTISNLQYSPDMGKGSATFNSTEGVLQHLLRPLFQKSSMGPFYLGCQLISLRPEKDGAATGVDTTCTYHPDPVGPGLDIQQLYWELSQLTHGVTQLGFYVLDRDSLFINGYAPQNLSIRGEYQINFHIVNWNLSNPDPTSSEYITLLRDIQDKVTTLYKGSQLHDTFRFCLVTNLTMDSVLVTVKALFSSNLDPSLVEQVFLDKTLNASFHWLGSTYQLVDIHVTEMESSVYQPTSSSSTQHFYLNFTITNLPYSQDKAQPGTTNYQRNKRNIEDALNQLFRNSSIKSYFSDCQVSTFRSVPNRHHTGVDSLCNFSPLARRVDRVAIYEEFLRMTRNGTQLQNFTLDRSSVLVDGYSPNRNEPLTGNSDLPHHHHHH
Source text: (§1) The binding affinity of the anti-MUC-16 antibodies for the membrane-proximal end of the extracellular region of the human MUC16 protein (human MUC16-His, Table 26) and the membrane-proximal end of the extracellular region of the rhesus monkey MUC16 protein (rhesus monkey MUC16-His, Table 26) was detected by ForteBio Octet RED96, respectively. According to the manufacturer's instructions, an AHC sensor (ForteBio, Cat #18-5060) was placed in a running buffer (lx PBS, Hyclone, Cat #SH30256.01, containing 0.02% Tween 20, pH 7.0) and pre-equilibrated at room temperature for 10 min. In a 96-well plate, the kinetic assay was performed according to the following steps: a) equilibrating the baseline for 100 s with the running buffer; b) diluting the anti-MUC-16 antibodies with the running buffer to 5 μg/mL, immobilizing for 200 s, and stopping; c) equilibrating the baseline for 300 s with the running buffer; and d) diluting the human or rhesus monkey MUC16 protein with the running buffer to 50 nM, binding for 200 s, and dissociating for 600 s. The experimental data were fitted and calculated using a Fortebio Data Analysis software 1:1 binding model.

Rhesus monkey MUC16-His = biological target: T2, Rhesus monkey MUC16-His (rhesus monkey); experiment: as above
T2 construct: The entry includes the C-terminal 6xHis tag; also called membrane-proximal end of the extracellular region of the rhesus monkey MUC16 protein
T2 chain: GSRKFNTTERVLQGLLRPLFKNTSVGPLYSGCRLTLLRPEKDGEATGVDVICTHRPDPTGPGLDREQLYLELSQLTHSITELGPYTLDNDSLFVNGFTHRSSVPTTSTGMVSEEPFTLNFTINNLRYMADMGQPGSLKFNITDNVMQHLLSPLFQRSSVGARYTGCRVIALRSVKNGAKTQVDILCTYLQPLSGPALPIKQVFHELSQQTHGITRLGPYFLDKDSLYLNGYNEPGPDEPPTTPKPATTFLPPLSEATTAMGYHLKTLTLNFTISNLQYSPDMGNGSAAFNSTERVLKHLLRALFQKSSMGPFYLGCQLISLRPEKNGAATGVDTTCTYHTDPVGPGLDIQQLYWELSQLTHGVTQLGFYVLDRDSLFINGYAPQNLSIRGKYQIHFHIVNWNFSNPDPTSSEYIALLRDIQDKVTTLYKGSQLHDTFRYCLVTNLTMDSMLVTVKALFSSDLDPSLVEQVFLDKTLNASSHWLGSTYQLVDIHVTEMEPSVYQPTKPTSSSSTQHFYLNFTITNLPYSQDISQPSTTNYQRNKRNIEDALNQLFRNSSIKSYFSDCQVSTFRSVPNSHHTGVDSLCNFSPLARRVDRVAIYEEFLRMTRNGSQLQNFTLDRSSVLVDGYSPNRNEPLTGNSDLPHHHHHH
Source text: as §1

[1] = biological target: T3, human MUC16 protein (ECT_TM huMuc16) on 293T cells (human); experiment: flow cytometry, 293T/hMUC16 cells, PE anti-human IgG Fc secondary, MFI; EC50 table under the plot, unit from the axis Conc.(nM)
T3 chain: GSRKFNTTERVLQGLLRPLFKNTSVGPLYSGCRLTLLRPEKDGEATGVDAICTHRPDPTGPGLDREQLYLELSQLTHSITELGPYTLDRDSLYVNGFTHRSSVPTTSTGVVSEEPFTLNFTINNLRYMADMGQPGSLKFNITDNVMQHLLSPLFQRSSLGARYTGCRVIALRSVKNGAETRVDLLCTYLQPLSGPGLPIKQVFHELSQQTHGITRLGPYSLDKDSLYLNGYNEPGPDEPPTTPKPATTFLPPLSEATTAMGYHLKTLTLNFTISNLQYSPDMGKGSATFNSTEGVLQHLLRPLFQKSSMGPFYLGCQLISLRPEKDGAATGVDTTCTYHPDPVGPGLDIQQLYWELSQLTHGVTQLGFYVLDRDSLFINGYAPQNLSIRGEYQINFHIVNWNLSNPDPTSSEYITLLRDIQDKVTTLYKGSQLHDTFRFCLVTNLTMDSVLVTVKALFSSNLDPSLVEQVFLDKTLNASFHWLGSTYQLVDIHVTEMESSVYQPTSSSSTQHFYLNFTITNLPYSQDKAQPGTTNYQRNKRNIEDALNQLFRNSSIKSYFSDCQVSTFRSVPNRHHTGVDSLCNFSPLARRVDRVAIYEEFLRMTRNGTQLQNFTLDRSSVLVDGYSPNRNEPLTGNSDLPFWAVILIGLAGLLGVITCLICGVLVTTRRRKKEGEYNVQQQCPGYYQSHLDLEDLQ
Experimental: (§2) The serially diluted anti-human MUC16 antibodies (at an initial concentration of 200 nM, 4-fold dilution, 8 points in total) obtained in the present application were added to the cells, and the cells were incubated at 4° C. for 30 min. The cells were washed twice with PBS, and then fluorescent secondary antibody R-PE-conjugated AffiniPure Goat Anti-Human IgG, Fcγ Fragment Specific (Jackson ImmunoResearch, Cat #109-116-098) was added. The cells were incubated at 4° C. for 30 min. The cells were washed twice with PBS and then resuspended, and finally, fluorescence signals were detected using a BD Accuri C5 (BD Bioscience) flow cytometer.

[2] = biological target: T4, rhesus monkey MUC16 protein (ECT_TM RhMuc16) on 293T cells (rhesus monkey); experiment: flow cytometry, 293T/rhesus MUC16 cells, PE anti-human IgG Fc secondary, MFI; EC50 table under the plot, unit from the axis Conc.(nM)
T4 chain: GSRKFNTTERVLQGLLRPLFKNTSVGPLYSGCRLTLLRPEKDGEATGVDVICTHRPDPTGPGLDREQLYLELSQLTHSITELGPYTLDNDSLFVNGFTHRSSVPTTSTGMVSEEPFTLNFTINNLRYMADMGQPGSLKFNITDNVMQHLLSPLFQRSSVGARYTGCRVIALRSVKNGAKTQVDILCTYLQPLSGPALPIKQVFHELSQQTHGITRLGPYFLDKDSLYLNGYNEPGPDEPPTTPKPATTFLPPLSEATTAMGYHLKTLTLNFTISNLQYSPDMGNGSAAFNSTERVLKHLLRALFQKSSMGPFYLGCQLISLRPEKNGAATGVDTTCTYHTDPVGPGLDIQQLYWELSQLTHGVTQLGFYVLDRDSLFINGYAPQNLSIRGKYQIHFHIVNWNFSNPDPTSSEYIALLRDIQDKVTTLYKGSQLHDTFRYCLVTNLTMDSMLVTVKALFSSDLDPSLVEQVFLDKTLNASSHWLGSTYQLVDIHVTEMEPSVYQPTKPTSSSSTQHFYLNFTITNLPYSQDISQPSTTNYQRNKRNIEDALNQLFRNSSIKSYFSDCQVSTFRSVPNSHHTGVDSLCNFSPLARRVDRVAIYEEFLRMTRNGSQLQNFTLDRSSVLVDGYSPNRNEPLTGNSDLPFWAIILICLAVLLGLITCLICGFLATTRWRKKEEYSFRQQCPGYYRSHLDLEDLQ
Experimental: as §2

Kd (Human MUC16-His): 0.359 nM
koff (Human MUC16-His): 0.000168 s⁻¹
kon (Human MUC16-His): 468000 M⁻¹ s⁻¹
Kd (Rhesus monkey MUC16-His): 1.82 nM
koff (Rhesus monkey MUC16-His): 0.00156 s⁻¹
kon (Rhesus monkey MUC16-His): 856000 M⁻¹ s⁻¹
EC50 [1]: 2.58 nM
EC50 [2]: 4.87 nM
B1: murine anti-MUC16 antibody 776.1 (antibody, human IgG1, kappa, L234A L235A, V domains shown)
VH: EVQLQQSGPELVKPGASVKISCKASGYTFTDYNIHWVKQSHGKILEWIGYIYPYNGVSDYNQNFKSKATLIVDNSSNTAYMELRSLTSEDSAVYYCARWDFGSGYYFDYWGQGTTLTVSS
VL: QIVLSQSPAILFASPGETVTMTCRASSSVIYMCWNQQKPGSSPKPWIYGTSTLASGVPTRFSGSGSGTSYSLTISRVEAEDAATYYCQQWSSNPFTFGSGTKLEIKR
notes: Murine variable regions on human IgG1 (L234A, L235A, D265A, P329A) and kappa constant regions

Kd (Human MUC16-His): 1.36 nM
koff (Human MUC16-His): 0.000348 s⁻¹
kon (Human MUC16-His): 255000 M⁻¹ s⁻¹
Kd (Rhesus monkey MUC16-His): 1.2 nM
koff (Rhesus monkey MUC16-His): 0.000945 s⁻¹
kon (Rhesus monkey MUC16-His): 791000 M⁻¹ s⁻¹
EC50 [1]: 8.72 nM
EC50 [2]: 11.1 nM
B2: anti-MUC16 antibody 776.1(C33A) (antibody, human IgG1, kappa, L234A L235A, V domains shown)
VH: B1 VH
VL: B1 VL with C33A
